This note sets out measurements from paper PMC3528738.

The stoichiometry N is the number of molecules, sites or subunits per partner or assembly.

This test addresses MPERp (HIV-1 (HXBc2 isolate)). The experiment in a line: cross-linking; peptides (10 µg) in solution incubated with 20 µM BS3 for 1 h at 37°C, TCA precipitation, Tricine SDS-PAGE; detection by Western blot with MAb2F5 or by NBD fluorescence in the gel. On the technique in general: In western blotting, separated proteins are transferred to a membrane and probed.

Sequence of MPERp (peptide) (P03375 656-683): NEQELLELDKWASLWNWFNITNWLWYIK

For MPERp (peptide), the stoichiometry N was 2.
